Measurements published in publication PMC10120478.
Numbering of substitutions follows the chain as printed.

Columns and labels:
[1] = target: T1, MgrA C12S C12S (Staphylococcus aureus XN108 mgrAC12S mutant) (UniProt P0C1S0); assay: EMSA; conditions: EMSA: 20 mM Hepes pH 7.6, 1 mM EDTA, 10 mM (NH4)2SO4, 30 mM KCl, 1 mM DTT, 0.2% (w/v) Tween-20, 10 uL, room temperature 1 min; 4% native PAGE
T1 sequence: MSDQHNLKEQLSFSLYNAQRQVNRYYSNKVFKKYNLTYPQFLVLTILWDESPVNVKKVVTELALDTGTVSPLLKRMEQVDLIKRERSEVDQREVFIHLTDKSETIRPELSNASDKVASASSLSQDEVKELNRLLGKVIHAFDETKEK

[2] = target: T2, MgrA (Staphylococcus aureus XN108) (UniProt P0C1S0); assay: EMSA; conditions: EMSA: 20 mM Hepes pH 7.6, 1 mM EDTA, 10 mM (NH4)2SO4, 30 mM KCl, 1 mM DTT, 0.2% (w/v) Tween-20, 10 uL, room temperature 1 min; 4% native PAGE
T2 sequence: T1 sequence with S12C

Sequence	binding [1]	binding [2]
GTCACACTCCATGCCATTGAGTTGTAATATATCTTTTTTAGGTATAAATGTTGTCGAATAAACAACAAGTTGTCCAAAAGATATAAATCTAAACAAGATATAGCCAGCAATTTAATATTTGTAATAGATAAAATGCTAAGTTTGATATATAATAAATTTAAGTAATTGTATAATAATATGAATTACAAACATCTAAGAAGAAACATAGGAGGCATCA (double strand) [psarV (sarV promoter probe)]	binds more weakly	binds
GTTCGACATACCCAATGCCAAAAACATACCTATTGAAATTGACAAAATTCCAATACTAACTTTTCTAATTGAATAGCGTACTTTACTTTGTTGTTTATTCATGATGAAACACTCCTTACAATAATATACAAACATTATAACATAGTGCGCTATATATTTTAATTAAAATTTTCTTTGTTTTATAAAGCTATTGTAGGAGGTAAAATAATTAACTTGTCTTTCCAAAATATGAAAAGTGTACTAAAATTCATCGCACGACAAATAGCCCATTTCCGATACTT (double strand) [plytN (lytN promoter probe)]	binds more weakly	binds
